Test results: article PMC10354024, “Conformational trajectory of allosteric gating of the human cone photoreceptor cyclic nucleotide-gated channel” (Nature Communications, 2023)
Blank lines part the entries; values can stand above or below the binder they belong to.

Key:
human CNGB3, full-length = biological target: T1, human CNGB3, full-length (human, UniProt Q9NQW8-1 1-809, N339 glycosylation site); assay: cryo-EM structure; full-length CNGA3/CNGB3 co-expressed and co-purified, in 0.02% GDN, 50 mM HEPES-Na pH 8.58, 150 mM NaCl, 0.1 mM TCEP, 2 mM EGTA, 2 mM cGMP; three states (closed, intermediate 1, intermediate 2), C1 symmetry; conditions: both partners purified
T1 construct: human cone photoreceptor cyclic nucleotide-gated channel subunit CNGB3, NCBI NP_061971.3, full length; modelled residues L206 to R643; One copy of this subunit stands with three CNGA3 in the channel tetramer; Cloned in the vector pEZT-BM (Addgene #74099); source: HEK 293S GnTi- cells (BacMam), co-infected with CNGA3 virus, purified (amylose resin, StrepTrap, Superose 6) in GDN
T1 sequence (looked up): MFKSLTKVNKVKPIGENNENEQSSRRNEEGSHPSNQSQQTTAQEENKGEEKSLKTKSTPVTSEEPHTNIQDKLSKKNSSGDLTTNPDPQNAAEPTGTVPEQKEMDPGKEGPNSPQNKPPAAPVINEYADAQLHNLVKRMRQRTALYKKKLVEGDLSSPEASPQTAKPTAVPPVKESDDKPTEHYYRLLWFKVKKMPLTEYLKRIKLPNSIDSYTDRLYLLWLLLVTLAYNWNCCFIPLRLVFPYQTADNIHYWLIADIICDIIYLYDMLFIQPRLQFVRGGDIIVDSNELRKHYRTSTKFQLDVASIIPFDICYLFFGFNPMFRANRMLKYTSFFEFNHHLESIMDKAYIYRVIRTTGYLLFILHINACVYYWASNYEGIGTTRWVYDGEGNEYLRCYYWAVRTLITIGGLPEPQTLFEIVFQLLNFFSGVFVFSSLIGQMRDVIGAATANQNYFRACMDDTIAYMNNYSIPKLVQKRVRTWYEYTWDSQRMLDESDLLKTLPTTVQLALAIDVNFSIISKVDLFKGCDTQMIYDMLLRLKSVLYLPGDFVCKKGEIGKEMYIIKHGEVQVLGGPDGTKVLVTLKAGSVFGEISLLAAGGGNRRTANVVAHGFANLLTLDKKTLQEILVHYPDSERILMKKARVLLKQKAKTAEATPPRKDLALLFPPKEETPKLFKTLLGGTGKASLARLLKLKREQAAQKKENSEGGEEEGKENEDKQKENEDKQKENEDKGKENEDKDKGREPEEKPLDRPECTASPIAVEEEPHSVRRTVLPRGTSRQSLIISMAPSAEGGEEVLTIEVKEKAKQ

[1] = biological target: the molecule itself; assay: as above
[2] = biological target: T2, truncated human CNGB3 (amino acids 79-809) (human, UniProt Q9NQW8-1 79-809); assay: cryo-EM structure; truncated CNGA3/CNGB3 co-expressed (P2A) and co-purified, in POPG/POPC (1:1) nanodiscs with MSP2N2, 50 mM HEPES-Na pH 8.58, 150 mM NaCl, 0.1 mM TCEP, 2 mM EGTA, 4 mM cGMP; five states (closed, intermediate 1, intermediate 2, pre-open, open), C1 symmetry; conditions: both partners purified
T2 construct: human CNGB3, NCBI NP_061971.3, amino acids 79-809 (amino acids 1-78 removed); Expressed as trunCNGA3-P2A-trunCNGB3 from one pEZT-BM vector; a residue of the P2A linker may precede the FLAG tag (surmised); also called truncated CNGB3; trunCNGB3
T2 sequence (looked up): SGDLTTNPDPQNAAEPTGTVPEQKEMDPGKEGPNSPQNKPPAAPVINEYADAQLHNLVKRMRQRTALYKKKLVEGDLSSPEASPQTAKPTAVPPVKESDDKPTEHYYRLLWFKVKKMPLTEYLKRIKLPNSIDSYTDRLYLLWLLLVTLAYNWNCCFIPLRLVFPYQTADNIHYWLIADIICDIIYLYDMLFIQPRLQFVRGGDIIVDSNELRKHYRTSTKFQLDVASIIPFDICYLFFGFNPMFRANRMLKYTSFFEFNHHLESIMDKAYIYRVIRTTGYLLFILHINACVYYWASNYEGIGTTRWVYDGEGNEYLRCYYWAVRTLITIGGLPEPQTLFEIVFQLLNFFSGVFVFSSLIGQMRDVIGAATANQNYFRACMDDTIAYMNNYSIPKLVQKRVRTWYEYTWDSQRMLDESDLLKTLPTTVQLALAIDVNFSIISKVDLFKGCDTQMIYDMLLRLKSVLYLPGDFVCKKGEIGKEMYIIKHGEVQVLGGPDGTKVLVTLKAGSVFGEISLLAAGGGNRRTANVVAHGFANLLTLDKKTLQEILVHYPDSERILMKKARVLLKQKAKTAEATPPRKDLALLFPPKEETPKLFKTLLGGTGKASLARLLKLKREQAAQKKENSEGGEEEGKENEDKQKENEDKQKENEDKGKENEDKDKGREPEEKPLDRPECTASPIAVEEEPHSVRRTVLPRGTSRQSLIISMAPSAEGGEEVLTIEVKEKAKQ

[3] = biological target: the molecule itself; assay: as above

stoichiometry N (human CNGB3, full-length): 3 A3 per B3
B1: human CNGA3, full-length (natural protein, UniProt Q16281-1 1-694, looked up)
chain: MAKINTQYSHPSRTHLKVKTSDRDLNRAENGLSRAHSSSEETSSVLQPGIAMETRGLADSGQGSFTGQGIARLSRLIFLLRRWAARHVHHQDQGPDSFPDRFRGAELKEVSSQESNAQANVGSQEPADRGRSAWPLAKCNTNTSNNTEEEKKTKKKDAIVVDPSSNLYYRWLTAIALPVFYNWYLLICRACFDELQSEYLMLWLVLDYSADVLYVLDVLVRARTGFLEQGLMVSDTNRLWQHYKTTTQFKLDVLSLVPTDLAYLKVGTNYPEVRFNRLLKFSRLFEFFDRTETRTNYPNMFRIGNLVLYILIIIHWNACIYFAISKFIGFGTDSWVYPNISIPEHGRLSRKYIYSLYWSTLTLTTIGETPPPVKDEEYLFVVVDFLVGVLIFATIVGNVGSMISNMNASRAEFQAKIDSIKQYMQFRKVTKDLETRVIRWFDYLWANKKTVDEKEVLKSLPDKLKAEIAINVHLDTLKKVRIFQDCEAGLLVELVLKLRPTVFSPGDYICKKGDIGKEMYIINEGKLAVVADDGVTQFVVLSDGSYFGEISILNIKGSKSGNRRTANIRSIGYSDLFCLSKDDLMEALTEYPEAKKALEEKGRQILMKDNLIDEELARAGADPKDLEEKVEQLGSSLDTLQTRFARLLAEYNATQMKMKQRLSQLESQVKGGGDKPLADGEVPGDATKTEDKQQ
notes: human cone photoreceptor cyclic nucleotide-gated channel subunit CNGA3, NCBI NP_001289.1, full length; modelled residues about A158-I159 to D609-L614; Three copies of this subunit stand with one CNGB3 in the channel tetramer; MBP was cut off with P3C protease; residues of the P3C site may remain at the N-terminus; Cloned in the vector pEZT-BM (Addgene #74099); also called CNGA3L; A3L; source: HEK …
binding result [1]: binds

binding result [2]: binds
B2: truncated human CNGA3 (amino acids 152-694) (domain or fragment, UniProt Q16281-1 152-694, looked up)
chain: KTKKKDAIVVDPSSNLYYRWLTAIALPVFYNWYLLICRACFDELQSEYLMLWLVLDYSADVLYVLDVLVRARTGFLEQGLMVSDTNRLWQHYKTTTQFKLDVLSLVPTDLAYLKVGTNYPEVRFNRLLKFSRLFEFFDRTETRTNYPNMFRIGNLVLYILIIIHWNACIYFAISKFIGFGTDSWVYPNISIPEHGRLSRKYIYSLYWSTLTLTTIGETPPPVKDEEYLFVVVDFLVGVLIFATIVGNVGSMISNMNASRAEFQAKIDSIKQYMQFRKVTKDLETRVIRWFDYLWANKKTVDEKEVLKSLPDKLKAEIAINVHLDTLKKVRIFQDCEAGLLVELVLKLRPTVFSPGDYICKKGDIGKEMYIINEGKLAVVADDGVTQFVVLSDGSYFGEISILNIKGSKSGNRRTANIRSIGYSDLFCLSKDDLMEALTEYPEAKKALEEKGRQILMKDNLIDEELARAGADPKDLEEKVEQLGSSLDTLQTRFARLLAEYNATQMKMKQRLSQLESQVKGGGDKPLADGEVPGDATKTEDKQQ
notes: human CNGA3, NCBI NP_001289.1, amino acids 152-694 (amino acids 1-151 removed); Expressed as trunCNGA3-P2A-trunCNGB3 from one pEZT-BM vector; also called truncated CNGA3; trunCNGA3
binding result [3]: binds
